According to article PMC8237399:

Tests used:
[1] = target: filamin C (FLNc) Ig-like domains 23–24, wild type (human); assay: cross-linking
[2] = target: filamin C (FLNc) Ig-like domains 23–24, wild type (human); assay: cross-linking; remark: listed apart in the source
[3] = target: filamin C (FLNc) Ig-like domains 23–24, wild type (human); assay: SEC-MALS

stoichiometry N [1]: 2 | stoichiometry N [2]: 2 | stoichiometry N [3]: 2
Substance: filamin C (FLNc) Ig-like domains 23–24, wild type (domain or fragment)
